The text below walks through data of patent US20230087378A1 (UCB, published 2023).

As a reminder, the Kd is the concentration at which binding is half-saturated. Higher therefore signals lower affinity. For orientation: koff means the rate constant with which the complex falls apart. Broadly, the kon is a measure of how fast the partners come together.

Assay [1] has as its target T1, Human IL-13 (human, UniProt P35225 35-146). In words: SPR, 100 nM IL-13Rα2 injected over IL-13 held by captured UCBXXXX (competitor).
The target of assay [2] is T1, Human IL-13. In words: SPR, antibody captured on anti-human F(ab')2, 25 nM IL-13 injected. A general note: In SPR one partner is held on a chip, and binding of the other changes the refractive index at the surface.
A further assay concerns the target Human IL-17A (human, UniProt Q16552 24-155). In words: SPR (Biacore T200), antibody captured on anti-human F(ab')2, human IL-17A as analyte, 25 C, 1:1 model. As to the method:
(§1) A goat anti-human IgG, F(ab′)₂ fragment specific antibody (Jackson ImmunoResearch) was immobilised on a CM5 Sensor Chip via amine coupling chemistry to a level of approximately 5000 RU. […] At the end of each cycle the surface was regenerated at a flowrate of 10 μl/min using a 60 s injection of 50 mM HCl followed by a 30 s injection of 5 mM NaOH and a final 60 s injection of 50 mM HCl. […] Buffer blank injections were included to subtract instrument noise and drift.
(§2) Kinetic parameters were determined using a 1:1 binding model using Biacore T200 Evaluation software (version 3.0).

For assay [3], the target named is T1, Human IL-13. In words: SPR (Biacore T200), antibody captured on anti-human F(ab')2, human IL-13 as analyte, 25 C, 1:1 model. As to the method: as §1, §2
In the next assay the target is T2, Human IL-17F (human, UniProt Q96PD4 31-163).
T2 sequence (looked up): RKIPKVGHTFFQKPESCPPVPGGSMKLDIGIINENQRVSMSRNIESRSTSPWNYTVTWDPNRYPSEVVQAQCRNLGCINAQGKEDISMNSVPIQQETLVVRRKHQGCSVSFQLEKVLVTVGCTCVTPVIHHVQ
In words: SPR (Biacore T200), antibody captured on anti-human F(ab')2, human IL-17F as analyte, 25 C, 1:1 model. As for the experimental part: as §1, §2

“IL-13Rα2 (from UniProt Q14627 27-343) (receptor)”: in the assay with Human IL-13 [1], the IL-13Rα2 Binding (RU) came to 0.3 RU.
Molecule “BITS7201A (Genentech) (bispecific antibody)” displayed an IL-13 Binding (RU) with Human IL-13 [2] of 8.6 RU. In the assay with Human IL-17A, the Kd was found to be 0.0844 nM, the koff amounted to 0.00106 s⁻¹ and the kon worked out at 1.27e+07 M⁻¹ s⁻¹. In the assay with Human IL-13 [3], this molecule had a Kd of 0.0275 nM, a koff of 5.69e-05 s⁻¹ and a kon of 2.05e+06 M⁻¹ s⁻¹. In the assay with Human IL-17F, this molecule registered a Kd of 0.0744 nM, a koff of 0.000574 s⁻¹ and a kon of 7.71e+06 M⁻¹ s⁻¹.

B1: DVD2166 (Abbvie) (bispecific antibody)
chain 1: EVQLVQSGAEVKKPGASVKVSCKASGYTFTTYGVSWVRQAPGQGLEWMGEIYPGNYNTYYNEKFRGRVTMTTDTSTSTAYMELRSLRSDDTAVYYCARWRTSYFSDYGYFDYWGQGTTVTVSSASTKGPEVQLVQSGAEVKKPGSSVKVSCKASGYTFTDYEIHWVRQAPGQGLEWMGVNDPESGGTFYNQKFDGRVTLTADESTSTAYMELSSLRSEDTAVYYCTRYSKWDSFDGMDYWGQGTTVTVSS
chain 2: DVVMTQSPLSLPVTLGQPASISCRSSQSLVHSHGNTYLHWYQQRPGQSPRLLIYTVSNRFSGVPDRFSGSGSGTDFTLKISRVEAEDVGVYYCSQSTHVPYTFGGGTKVEIKRTVAAPDIQMTQSPSSLSASVGDRVTITCRASSGIISYIDWFQQKPGKAPKRLIYATFDLASGVPSRFSGSGSGTDYTLTISSLQPEDFATYYCRQVGSYPETFGQGTKLEIKR
B1: in the assay with Human IL-17A, binding was characterised by a dissociation constant (Kd) of 0.137 nM, the off-rate constant (koff) stood at 7.68e-05 s⁻¹ and the on-rate (kon) was determined as 559000 M⁻¹ s⁻¹. In the assay with Human IL-13 [3], this molecule returned a Kd of 0.0184 nM, a koff of 1.5e-05 s⁻¹ and a kon of 816000 M⁻¹ s⁻¹.

B2: DVD2174 (Abbvie) (bispecific antibody)
chain 1: EVQLVQSGAEVKKPGASVKVSCKASGYTFTTYGVSWVRQAPGQGLEWMGEIYPGNYNTYYNEKFRGRVTMTTDTSTSTAYMELRSLRSDDTAVYYCARWRTSYFSDYGYFDYWGQGTTVTVSSASTKGPEVQLVQSGAEVKKPGSSVKVSCKASGGSFGGYGIGWVRQAPGQGLEWMGGITPFFGFADYAQKFQGRVTITADESTTTAYMELSGLTSDDTAVYYCARDPNEFWNGYYSTHDFDSWGQGTTVTVSS
chain 2: DVVMTQSPLSLPVTLGQPASISCRSSQSLVHSHGNTYLHWYQQRPGQSPRLLIYTVSNRFSGVPDRFSGSGSGTDFTLKISRVEAEDVGVYYCSQSTHVPYTFGGGTKVEIKRTVAAPSVFIFPPEIVLTQSPDFQSVTPKEKVTITCRASQDIGSELHWYQQKPDQPPKLLIKYASHSTSGVPSRFSGSGSGTDFTLTINGLEAEDAGTYYCHQTDSLPYTFGPGTKVDIKR
In the assay with Human IL-17A, B2 came in with a Kd of 0.268 nM, a koff of 0.000128 s⁻¹ and a kon of 476000 M⁻¹ s⁻¹. In the assay with Human IL-13 [3], this molecule came in with a Kd of 0.0563 nM, a koff of 3.66e-05 s⁻¹ and a kon of 650000 M⁻¹ s⁻¹.
